US11306331B2, “Processes for the production of hydroxycinnamic acids using polypeptides having tyrosine ammonia lyase activity” (CysBio ApS, priority 2014, dated 2022)

B1: HaXAL2: tyrosine ammonia lyase derived from Herpetosiphon aurantiacus, protein GI 159898927, 552 aa (protein, listed as Herpetosiphon aurantiacus)
chain: MRHQVTLTGAGLTIEDVVRVARHHQPVGLTDNPEILQRIEDSCAYINDAVKASKPVYGVTTGFGGMADVVISSEEAADLQNNAIWYHKTGAGKLLPLADVRAAMLLRANSHMRGVSGIRLEIIQRMMTFLNANVTPHVREFGSIGASGDLVPLISITGALLGTDPAFRVDFDGENIDCLEALERLNLPRLELLPKEGLAMMNGTSVMTGIASNVLHDARILLGLALNIHGLMIQGLQGTNQSFHPFIHQHKAHTGQVWAADHMLQILEGSALSRDELDGRHEYREGDLIQDRYSLRCLPQFLGPIIDGMAYITHHLRVEINSANDNPLINTEAGASYHGGNFLGQYIGVGMDQLRYYMGLMAKHLDVQIALLVSPQFNNGLSASLVGNTDRKVNMGLKGLQISGNSIMPILGFLGNSLADRFPTHAEQFNQNINSQGFGSANLARQTIETLQQYIAIALIFGVQAVDLRTFKRTGHYNAVETLSPMTAKLYSAMREVVGKPISHERPYIWNDNEQALEQHISAIVSDITNDGIIPQAIQETLDSLRSIILFA
B2: RtXAL: previously described aromatic amino acid lyase of Rhodosporidium toruloides/Rhodotorula glutinis, protein GI 129593 (protein, UniProt P11544 1-716, looked up)
Phenylalanine/tyrosine …: MAPSLDSISHSFANGVASAKQAVNGASTNLAVAGSHLPTTQVTQVDIVEKMLAAPTDSTLELDGYSLNLGDVVSAARKGRPVRVKDSDEIRSKIDKSVEFLRSQLSMSVYGVTTGFGGSADTRTEDAISLQKALLEHQLCGVLPSSFDSFRLGRGLENSLPLEVVRGAMTIRVNSLTRGHSAVRLVVLEALTNFLNHGITPIVPLRGTISASGDLSPLSYIAAAISGHPDSKVHVVHEGKEKILYAREAMALFNLEPVVLGPKEGLGLVNGTAVSASMATLALHDAHMLSLLSQSLTAMTVEAMVGHAGSFHPFLHDVTRPHPTQIEVAGNIRKLLEGSRFAVHHEEEVKVKDDEGILRQDRYPLRTSPQWLGPLVSDLIHAHAVLTIEAGQSTTDNPLIDVENKTSHHGGNFQAAAVANTMEKTRLGLAQIGKLNFTQLTEMLNAGMNRGLPSCLAAEDPSLSYHCKGLDIAAAAYTSELGHLANPVTTHVQPAEMANQAVNSLALISARRTTESNDVLSLLLATHLYCVLQAIDLRAIEFEFKKQFGPAIVSLIDQHFGSAMTGSNLRDELVEKVNKTLAKRLEQTNSYDLVPRWHDAFSFAAGTVVEVLSSTSLSLAAVNAWKVAAAESAISLTRQVRETFWSAASTSSPALSYLSPRTQILYAFVREELGVKARRGDVFLGKQEVTIGSNVSKIYEAIKSGRINNVLLKMLA

Assays:
[1] = system: E. coli BL21(DE3)pLysS cells; test: Specific production of pHCA and CA by E. coli expressing TAL/PAL enzymes; type: cell-based, Escherichia coli; conditions: 24 h after supplementation, +/- standard deviation
Description: Plasmids carrying the genes were transformed into electrocompetent E. coli BL21(DE3)pLysS cells (Life Technologies) and selected on LBplates containing 50 ug/mL streptomycin. The strains were grown in M9 minimal media containing glucose as a carbon source, and expression was induced by adding 1 mM IPTG at an optical density at 600 nm of 0.6. After three hours of growth at 30° C. the cultures were supplemented with 2 mM tyrosine, phenylalanine or histidine. After further 24 hours, samples were withdrawn for determination of the optical density at 600 nm and for the isolation of the supernatant.
The concentration of pHCA and CA in the supernatant was quantified by high performance (HPLC) and compared to chemical standards. HPLC was done on a Thermo setup using a HS-F5 column and mobile phases: 5 mM ammonium formate pH 4.0 (A) and acetonitrile (B) at 1.5 mL min-1, using a gradient elution starting at 5% B. From 0.5 min after injection to 7 min, the fraction of B increased linearly from 5% to 60%, and between 9.5 min and 9.6 the fraction of B decreased back to 5%, and remaining there until 12m pHCA and CA were quantified by measuring absorbance at 333 nm and 277 nm, respectively. The production was tested without addition of precursors or the addition of either phenylalanine or tyrosine to the growth medium.
The specific production was calculated as micromolar (μM) concentration per unit of optical density of the culture at 600 nm, and standard deviations were calculated based on triplicate experiments. HaXAL1, HaXAL2 and FjXAL are the most specific enzymes and those that reach the highest yields.

[2] = system: Saccharomyces cerevisiae CEN.PK102-5B; test: Specific production of pHCA and CA by S. cerevisiae expressing TAL enzymes; type: cell-based; conditions: 72 h, 30° C., +/- standard deviation
From the text: A number of the previously characterized enzymes were characterized when expressed in Saccharomyces cerevisiae. Genes encoding HaXAL1 and FjXAL were synthesized with codon optimization for S. cerevisiae available by GeneArt (Life Technologies), and were named HaXAL1 Sc and FjXALSc. Genes were amplified using the oligonucleotide (refer to specific name) shown in Table 6, and inserted by uracil-excision into the vector pCfB132 together with the PPGK1 promoter amplified by primers PPGK1_fw and PPGK1_rv (Jensen et al., 2014). The finished plasmids were transformed into Saccharomyces cerevisiae CEN.PK102-5B (MAT a ura3-52 his3Δ1 leu2-3/112 MAL2-8c SUC2) using a standard lithium acetate transformation protocol and selected for on synthetic drop-out media plates lacking uracil.
Cells were grown in SC medium without uracil, and diluted into Delft medium or Feed-In-Time (FIT) medium (m2p-labs) supplemented with leucine and histidine. After 72 h of incubation at 30° C. with shaking, samples were taken for the analysis of optical density at 600 nm and for clarification of the supernatant, which was analyzed by HPLC as described in example 1. The specific production was calculated as micromolar (μM) concentration per unit of optical density of the culture at 600 nm and is shown in Table 4.

Molecule | Specific production of CA ([1]; M9 + Phe (2 mM)) [μM OD600-1] | Specific production of pHCA ([1]; M9 + Phe (2 mM)) [μM OD600-1] | Specific production of CA ([1]; M9 + Tyr (2 mM)) [μM OD600-1] | Specific production of pHCA ([1]; M9 + Tyr (2 mM)) [μM OD600-1] | Specific production of CA ([2]; Delft + Tyr (10 mM)) [μM OD600-1] | Specific production of pHCA ([2]; Delft + Tyr (10 mM)) [μM OD600-1] | Specific production of CA ([2]; Delft medium) [μM OD600-1] | Specific production of pHCA ([2]; Delft medium) [μM OD600-1] | Specific production of CA ([2]; FIT + Tyr (10 mM)) [μM OD600-1] | Specific production of pHCA ([2]; FIT + Tyr (10 mM)) [μM OD600-1] | Specific production of CA ([2]; FIT medium) [μM OD600-1] | Specific production of pHCA ([2]; FIT medium) [μM OD600-1]
B1 | 0.4 ± 0.02 | 20 ± 4.4 | 0 ± 0 | 61 ± 9.7 | 0 ± 0 | 20 ± 6.3 | 0 ± 0 | 22 ± 5.2 | 0 ± 0 | 26 ± 11 | 0 ± 0 | 30 ± 16
B2 | 180 ± 16 | 7.2 ± 1.3 | 5.9 ± 6.1 | 170 ± 10 | 21 ± 1.9 | 89 ± 13 | 18 ± 0.9 | 20 ± 0.8 | 57 ± 4.1 | 110 ± 8.8 | 88 ± 2 | 67 ± 4.3
